B1: S-plug (designed binder)
chain: STIEEQAKTFLDKFNHEAEDLFYQSSLASWNYNTNITEENVQNMNNAGDKWSAFLKEQSTLAQMYPLQEIQNQTVKQQLQALQQN
notes: also called prototype S-plug
B2: S-plug3 (designed binder)
chain: SAMEEQAKFFLDKLQHELEDTQYQLLYKALALNKSQQEELQKQYKKTYDEYVTLAKKWAKAASSIPLNSITDEKLYKAMEKTASSPPGC
notes: also called S-plug2 with C-terminal arm PPGC; cysteine-locked S-plug
B3: S-plug2 (designed binder)
chain: SAMEEQAKFFLDKLQHELEDTQYQLLYKALALNKSQQEELQKQYKKTYDEYVTLAKKWAKAASSIPLNSITDEKLYKAMEKTASS
notes: also called thermo-stabilised S-plug; mutated form of S-plug

Assays:
[1] = biological target: the molecule itself; experiment: SEC-MALS; analytical SEC-LS: Superdex 75 increase 10/30 with miniDAWN TREOS and refractive index detector; about 1.0 mg protein loaded; 50 mM Tris-HCl, 150 mM NaCl, 2.5% glycerol, pH 7.8; 0.5 mL/min
SARS-CoV-2 spike RBD-His [2] = biological target: T1, SARS-CoV-2 spike RBD-His (SARS-CoV-2, UniProt P0DTC2); experiment: SPR; settings: both partners purified
[3] = biological target: the molecule itself; experiment: mass spectrometry; S-plug3 checked for its dimeric state by mass spectrometry; conditions not given
SARS-CoV-2 spike RBD-His [4] = biological target: T1, SARS-CoV-2 spike RBD-His; experiment: SPR; settings: both partners purified; remark: listed apart in the source

Binder | stoichiometry N [1] | Kd (SARS-CoV-2 spike RBD-His [2]) | binding result [3] | Kd (SARS-CoV-2 spike RBD-His [4])
B1 | 2 | 50 to 200 nM |  | 
B2 |  |  | binds | 39.5 ± 1.1 nM
B3 | 2 |  |  | 61.7 ± 2.3 nM

— publication PMC9144871 (International Journal of Molecular Sciences, 2022)
